B1: λCI-ZipACTD (residues 186–328) [E. coli] / α-FtsZ fusion protein (wild-type E. coli FtsZ) [E. coli] (parent complex)
chain 1: not shown
chain 2: MFEPMELTNDAVIKVIGVGGGGGNAVEHMVRERIEGVEFFAVNTDAQALRKTAVGQTIQIGSGITKGLGAGANPEVGRNAADEDRDALRAALEGADMVFIAAGMGGGTGTGAAPVVAEVAKDLGILTVAVVTKPFNFEGKKRMAFAEQGITELSKHVDSLITIPNDKLLKVLGRGISLLDAFGAANDVLKGAVQGIAELITRPGLMNVDFADVRTVMSEMGYAMMGSGVASGEDRAEEAAEMAISSPLLEDIDLSGARGVLVNITAGFDLRLDEFETVGNTIRAFASDNATVVIGTSLDPDMNDELRVTVVATGIGMDKRPEITLVTNKQVQQPVMDRYQQHGMAPLTQEQKPVAKVVNDNAPQTAKEPDYLDIPAFLRKQAD

This assay covers variants of B1. Kind of assay: bacterial two-hybrid β-galactosidase assay; 25 μM IPTG; parent: 720; read off a plot.
Take chain 2 D180N: the response was roughly 770 Miller Units. For chain 2 S177P, the response is roughly 790 Miller Units. Consider chain 2 L179R, for which the response is roughly 880 Miller Units. In the case of chain 2 F182S, the response was roughly 770 Miller Units.

As for chain 2 L169P, the response is roughly 790 Miller Units.

For the origin of these results see PMC5624674 (2017).
